Here are results for 40 sequences from the nanobody polyreactivity screen of Harvey et al. (2022).

The nature of the data set: yeast display, Sf9 membrane polyspecificity reagent, FACS + sequencing; frameworks hold sequencing errors. A digest of the protocol: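 Galactose induction of a Saccharomyces cerevisiae BJ5465 synthetic nanobody display library ran 36–48 hours. The cells were then stained for 1 hour at 4 °C with 10% biotinylated, detergent-solubilized Sf9 membrane reagent, pulled down on streptavidin microbeads and FACS-sorted into low and high (top ~1%) gates on expression and reagent-binding fluorescence. Labels for polyreactivity follow the gate of origin.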
On to “QVQLVESGGGLVQAGGSLRLSCAASGSTFHSYAIGWYRQAPGKEREFVAAITIRGGSTYYADSVKGRITISRDNAKNTVYLQMNSLKPEDNAVYYCAALVWGSYARWRYYCGQGTQVTVSS”, for which the “polyreactivity (PSR sort gate)” value was “high polyreactivity”. For “QVQLVESGGGLVQAGGSLRLSCAASGSTFHVNAMGWYRQAPGKEREFVAAISWRTGSTYYADSVKGRFTISRDNAKNTVYLQRHSLKPEDTAVYYCAAKRSYSNYDYWGQGTQVTVSS” the value was “high polyreactivity”; for “QVQLVESGGGLVQAGGSLRLSCAASGSTFHYYAMGWYRQAPGKERELVAAITRGGNTYYADSVKGRFTISRGNAKNTVYLQMNSLKPEDTAVYYCAKDNLFEAYRYDYWGQGTQVTVSS”, “low polyreactivity”. Take “QVQLVESGGGLVQAGGSLRLSCAASGSTFICKAMGWYRQAPGKERELVAAIDYRGGNTYYADSVKGRFTISRDYAKNSVYLHMNSLKPEHTAVYYCAARVVGYEYFYDYYYWGQGTQVTLSS”: the “polyreactivity (PSR sort gate)” value was “low polyreactivity”. For “QVQLVESGGGLVQAGGSLRLSCAASGSTFIFNAMGWYRQAPGKERELVAGISSGSTYYADSVKGRFTISRDNAKNTVYLQMNSLIPEDTAVYSCATKLRRWRFYAAYDYWGQGTQVTVSS” the value was “high polyreactivity”; for “QVQLVESGGGLVQAGGSLRLSCAASGSTFIFNAMGWYRQAPGKEWELVAGISSGSTYYADSVKGRFTISRDNAKNTVYLQMNSLKPEDTAVYYCATKLRRWRFYAAYDYWGQGTQVTVSS”, “high polyreactivity”. Take “QVQLVESGGGLVQAGGSLRLSCAASGSTFIFYSMGCYRQAPGKERELVASITSSSGPTYYADSVKGRFTISRDNAKNTVYLQMNSLKPEDTAVYYCAKRPIRYYHLLRGNYWGQGTQVTVSS”: the “polyreactivity (PSR sort gate)” value was “low polyreactivity”.

“QVQLVESGGGLVQAGGSLRLSCAASGSTFIGNAMGWYRQAPGKERELVAAITSSGGSTYYADSVKGRFTISRDNAKNTVYLQMNSLKPEDTAVYYCAAKSRRTRRSYYWGQGTQVTVSS”: the “polyreactivity (PSR sort gate)” value was “high polyreactivity”. For “QVQLVESGGGLVQAGGSLRLSCAASGSTFIGYAMGWYRKAPGKERELVAAITGGGRTNYADSVKGRFTISRDNAKNTVYLQMNSLKPEDTAVYYCAARGVTRGYAKPYYSRGDYWGQGTQVTVSS” the value was “low polyreactivity”; for “QVQLVESGGGLVQAGGSLRLSCAASGSTFIGYAMGWYRQAPGKERELVASISWGGGSTYYADSVKGRFTISRDNAKNTVYLQMNSLKPEDTAVYYCATDGRTYIDFYWGQGTQVTVSS”, “low polyreactivity”; for “QVQLVESGGGLVQAGGSLRLSCAASGSTFIGYAMGWYRQAPGKEWELVAAISWSGGRTYYADSVKGRFTISRDNEKNTVYLQMNSLKPEDTAVYYCAASYYGCSARYDTLGIYEYWGLGTQVTVSS”, “high polyreactivity”. For “QVQLVESGGGLVQAGGSLRLSCAASGSTFIHNAMGWYRQAPGKERELVAAITSGGSTYYADSVKGRFTISRDNAKNTVYLQMTSLKPEDTAVYYCNAGRGTRFVYIDGMDYWGQGTQVTVSS” the value was “high polyreactivity”. For “QVQLVESGGGLVQAGGSLRLSCAASGSTFILNAMGWYRQAPGKERELVATISSSDTSTYYADSVKGRFTISRDNANNTVYLQMNSLKPEDTAVYYCNADYYTTSYLQRVYHYGVEYDYWGQGTQVTVSS” the value was “low polyreactivity”; for “QVQLVESGGGLVQAGGSLRLSCAASGSTFILYAMGWYRQAPGKERELVAAISSDGSTYYADSVKGRFTISRDNAKNTVYLQMNSLKPEDTAVYYCAADSDTFYYTGYDYDYWGQGTQVTVSS”, “low polyreactivity”. Regarding “QVQLVESGGGLVQAGGSLRLSCAASGSTFIPYAMGWYRQAPGKERELVAAIRGGDGSTYYADSVKGRFTISRDNAKNTVYLQMNSLKPEDTAVYYCAADTVITAYFYRFWRYNYWGQGTQVTVSS”, the “polyreactivity (PSR sort gate)” value is on record as “low polyreactivity”. For “QVQLVESGGGLVQAGGSLRLSCAASGSTFIRYAMGWYRQAPGKERELVAAISSGGGNTYYADSVKGRFTISRDNAKNTVYLQMDSLKPEDTAVYYCAARYLAYGPTGYLYGYNYWGQGTQVTVSS” the value was “high polyreactivity”. For “QVQLVESGGGLVQAGGSLRLSCAASGSTFISNDMGWYRQAPGKEREFVAAITASGGSTYYADSVKGRFTISRDYAKNTVYLQMNSLKPEDTAVYYCARVYTFLDVYFRYGYWGQGTQVTVSS” the value was “low polyreactivity”; for “QVQLVESGGGLVQAGGSLRLSCAASGSTFISYAMGWYRQAPGKERELVAAISYRGGSTRYADSVKGRFTISRDNAKNTVYLQMNSLKPEDTAVYYCAAYTRKSHIREYDYWGQGTQVTVSS”, “high polyreactivity”; for “QVQLVESGGGLVQAGGSLRLSCAASGSTFITYVMGWYRQAPGKERELVAAISRSGGTTYYADSVKGRFTISRDNAKNTVYLQMNCLKPEDTAVYYCAARIGGQVQKTARGSWGQGTQVTVSS”, “high polyreactivity”. For “QVQLVESGGGLVQAGGSLRLSCAASGSTFIVNALGGYRQAPGHEREFVAAIRWSGGSTYYADSVKGRFTISRDNAKNTVYFQMNSLKPDDTAVYYCNARSYQSARFRGGYWGQGTQVTVSS” the value was “high polyreactivity”; for “QVQLVESGGGLVQAGGSLRLSCAASGSTFIVNAMGWYRQAPGKERELVAAITGGGGSTYYADSVKGRFTISRDNAKNTVYLQMNSLKPEDTAVDYCAARIQYAFGADYYWGQGTQVTVSS”, “low polyreactivity”.

On to “QVQLVESGGGLVQAGGSLRLSCAASGSTFIVYAMGWYRQAPGKERELVAAIRGRGGSTYYADSVKGRFTISRDNAKNTVYLQMNSLKPEDTAVYYCAARGISPQEMYYWGQGTQVTVSS”, for which the “polyreactivity (PSR sort gate)” value is “high polyreactivity”. For “QVQLVESGGGLVQAGGSLRLSCAASGSTFIWYDMGWYRQAPGKERELVATIDGNDGSTYYADSVKGRFTISRDNAKNTVYLQMNSLKPEDTAVYYCAKRSTGRLQSYNYWGQGTQVTVSS” the value was “low polyreactivity”; for “QVQLVESGGGLVQAGGSLRLSCAASGSTFIYNTMGSYRQAPGKERELVAAISGSGGRTYYADSVKGRFTISRDNAKNTVYLQMNSLKPEDTAVYYCAARYYTKLYWGQGTQVTVSS”, “high polyreactivity”; for “QVQLVESGGGLVQAGGSLRLSCAASGSTFIYYAMGWYRQAPGKERELVAGISIRGGSTYADSVKGRFTISRDNAKNTVYLQKNSLKPEDTAVYFCNAYKRIKANGYAIRYYYWGQGTQVTVSS”, “high polyreactivity”. For “QVQLVESGGGLVQAGGSLRLSCAASGSTFKAYAMGWYRQAPGKERELVAAITKSGGRTYYADSVKGRFTLSRDNAKNTVYLQMNSLKPEDTAVYYCNAAAYVWKSKQRLYVITYDYWGQGTQVTVSS” the value was “high polyreactivity”; for “QVQLVESGGGLVQAGGSLRLSCAASGSTFKAYAMGWYRQAPGKERELVAAITYNGGSTYYADSVKGRFTISRDNEKNTVYLQMNSLKPEDTAVYYCAKRETGRRDPRRSTQYRYEYWGQGTQVTVSS”, “low polyreactivity”; for “QVQLVESGGGLVQAGGSLRLSCAASGSTFKAYVMGWYRQEPAKERELVAVISRSGGTTYYADSVKGRFTISRDNAKNTVYLQMNSLKPEDTAVYYCAAQWRYQYPESLESYYWGQGTQGTVSS”, “high polyreactivity”.

On to “QVQLVESGGGLVQAGGSLRLSCAASGSTFKEYTMGWYRQAPAKERELVAASSKSGDSTYYADSVKGRFTISRDNAKNTVYLQMNSLKPEDTAVYYCNKPTWYTIYDYWGQGTQVTVSS”, for which the “polyreactivity (PSR sort gate)” value is on record as “low polyreactivity”. For “QVQLVESGGGLVQAGGSLRLSCAASGSTFKFNAMGWYRQAPGKEREFVAAITSSGDSTYYADSVKGRFTISRDNAKNTVYLQMNCLKPEDTAVYYCAAEFESSFALGFYYWGQGTEVTVSS” the value was “high polyreactivity”; for “QVQLVESGGGLVQAGGSLRLSCAASGSTFKFYTMGWYRQAPGKERELVATIDWSGGSTYYADSVKGRFTISRDNAKNTVYLQMNSLKPEDTAVYYCAAYSRSRNTRLGKYYYWGQGTQVTVSS”, “high polyreactivity”; for “QVQLVESGGGLVQAGGSLRLSCAASGSTFKFYTMGWYRQAPGKERELVATIDWSGGSTYYADSVKGRFTISRDNAKNTVYLQMNSLKPEDTAVYYCAAYSRSRTTRLGKYYYWGQGTQVTVSS”, “high polyreactivity”. For “QVQLVESGGGLVQAGGSLRLSCAASGSTFKGNAMGWYRQAPGKERELVAAINRSGTSTYYADSVKGRFTISRDNAKNTVYLQMNSLKPEDTAVYYCAADKAPYSTEGDSWGQGTQVTVSS” the value was “high polyreactivity”; for “QVQLVESGGGLVQAGGSLRLSCAASGSTFKIYAMGWYRQAPGKERELVARITGRGGSTYYADSVKGRFTISRDNAKNTVYLQMNSLKPEDTAVYYCAARVYTYYYDLHKRYYWGQGTQVTVSS”, “high polyreactivity”; for “QVQLVESGGGLVQAGGSLRLSCAASGSTFKKYAMGWYRQAPGKERELVAAITGSGGRTYYADSVKGRFTISRDTAKNTVYLQMNSLKPEDTAVYYCANLNNYGYDYWGQGTQVTVSS”, “high polyreactivity”. For “QVQLVESGGGLVQAGGSLRLSCAASGSTFKNNAMGWYRQATGKEREFVAGITRRGTSTYYADSVKGRFTISRDNAKNTVYLQMNSLKPEDTAVYYCAVGVYDYTGTYGYWGQGTQVTVSS” the value was “high polyreactivity”. As for “QVQLVESGGGLVQAGGSLRLSCAASGSTFKPNAMGWSRQAPGKERELVAAINGSGGDTYYADSVKGRFTISRDYANNTFYLQMNSLKPEDTAVYYCAAQWGYYNYWYGYWGQGTQVTVSS”, the “polyreactivity (PSR sort gate)” value is listed as “low polyreactivity”.

For the sequence “QVQLVESGGGLVQAGGSLRLSCAASGSTFKPNAMGWYRQAPGKERELVAAITSGSTYYADSVKGRFTISRDNAKNTVYLQMNSLKPEDTAVYYCAVVTGSFRTRYTYYYWGQGTQVTVSS”, the “polyreactivity (PSR sort gate)” value is “high polyreactivity”.

Regarding “QVQLVESGGGLVQAGGSLRLSCAASGSTFKPYTMGWYRPAPGKERELVAAISSVDSTYYADSVKGRFTISRDNAKKTVYLQMNSLKPEDTAVYDCNKRKSPTFTYAMNYWGQGTQGTVSS”, the “polyreactivity (PSR sort gate)” value was “low polyreactivity”.

For the sequence “QVQLVESGGGLVQAGGSLRLSCAASGSTFKRYAMGWYRQAPGKERALVASISSGGSTNYADSVKGRFTISRDNAKNTVYLQMHSLKPEDTAVYYCAVSYRSFRYYWERYYSWGQGTQVTVSS”, the “polyreactivity (PSR sort gate)” value is “high polyreactivity”.
